US20240352080A1 (Seagen, published 2024)

Biological target: T1, CD47 (UniProt Q08722 19-323, limits assumed)
T1 construct: whole, on cells; L540cy and SW780 are the cell lines named
Test: saturation binding, flow cytometry on CD47-expressing L540cy cells

EC50: 21 nM
B1: hB6H12.3 (unmasked parent) (antibody, V domains shown)
VH: EVQLLESGGGLVQPGGSLRLSCAASGFTFSGYGMSWVRQAPGKRLEWVATITSGGTYTYYPDSVKGRFTISRDNSKNTLYLQMNSLRAEDTAIYFCARSLAGNAMDYWGQGTLVTVSS
VL: EIVMTQSPDFQSVTPKEKVTLTCRASQTISDYLHWYQQKPDQSPKLLIKFASQSISGVPSRFSGSGSGSDFTLTINSLEAEDAATYYCQNGHGFPRTFGQGTKLEIKR
